The source of these data is patent US20240101668A1 (WUGEN, published 2024).

To fix the notation:
T1: huCLL1-K244-Avi-Tev-His (human, UniProt Q5QGZ9 65-265)
T1 construct: extracellular domain
T1 sequence (looked up): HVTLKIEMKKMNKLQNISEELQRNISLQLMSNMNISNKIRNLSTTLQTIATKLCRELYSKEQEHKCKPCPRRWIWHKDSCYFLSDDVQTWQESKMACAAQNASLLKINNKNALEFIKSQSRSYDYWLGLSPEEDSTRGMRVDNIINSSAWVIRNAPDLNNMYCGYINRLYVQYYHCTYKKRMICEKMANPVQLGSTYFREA

T2: huCLL1-Q244-Avi-Tev-His (human, UniProt Q5QGZ9 65-265)
T2 construct: extracellular domain; also called CLL-1 K244Q
T2 sequence (looked up): T1 sequence (looked up) with K180Q

B1: Polypeptide No. 92 (scFv, V domains shown)
VH: QVQLVQSGAEVKKPGASVKVSCKASGYTFTNHYMHWVRQAPGQGLEWMGIINPSGGSTSYAQKFQGRVTMTRDTSTSTVYMELSSLRSEDTAVYYCASAEVGATHYGMDVWGQGTTVTVSS
VL: DIVMTQSPLSLPVTPGEPASISCRSSQSLLHSNGYNYLDWYLQKPGQSPQLLIYAASSLQSGVPDRFSGSGSGTDFTLKISRVEAEDVGVYYCMQALHPPTFGQGTKVEIKR
notes: scFv
B2: Polypeptide No. 95 (scFv, V domains shown)
VH: QVQLVQSGAEVKKPGSSVKVSCKASGYSFTTYDINWVRQAPGQGLEWMGRMNPNSGNTGYAQKFQGRVTITADESTSTAYMELSSLRSEDTAVYYCARVVHGMDVWGQGTTVTVSS
VL: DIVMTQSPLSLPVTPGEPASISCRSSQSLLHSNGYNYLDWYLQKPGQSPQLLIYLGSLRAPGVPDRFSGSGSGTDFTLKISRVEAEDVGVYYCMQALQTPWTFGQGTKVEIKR
notes: scFv
B3: Polypeptide No. 93 (scFv, V domains shown)
VH: QVQLVQSGAEVKKPGASVKVSCKASGYSFTNYDISWVRQAPGQGLEWMGWVNPNSGNTGYAQKFQGRVTMTRDTSTSTVYMELSSLRSEDTAVYYCAKDAPYYYDSSGYYGVFDYWGQGTLVTVSS
VL: DIVMTQSPLSLPVTPGEPASISCRSSQSLLHSNGYNYLDWYLQKPGQSPQLLIYAASSLQSGVPDRFSGSGSGTDFTLKISRVEAEDVGVYYCMQALQTPLTFGQGTRLEIKR
notes: scFv
B4: Polypeptide No. 94 (scFv, V domains shown)
VH: QVQLVQSGAEVKKPGASVKVSCKASGYTFTTYDINWVRQAPGQGLEWMGWISGYNGNTGYAQKFQGRVTMTRDTSTSTVYMELSSLRSEDTAVYYCAKDMGYGDYPDAFDIWGQGTMVTVSS
VL: B3 VL with S58T, T99I, L101I, R108K, L109V
notes: scFv
B5: Polypeptide No. 197 (scFv, V domains shown)
VH: QVQLVQSGAEVKKPGASVKVSCKASGYTLTNNWMHWVRQAPGQGLEWMGWMNPNSGNTGYAQKFQGRVTMTRDTSTSTVYMELSSLRSEDTAVYYCATATADDAFDIWGQGTMVTVSS
VL: DIQMTQSPSSLSASVGDRVTITCRASQSISTWLAWYQQKPGKAPKLLIYGASSLQSGVPSRFSGSGSGTDFTLTISSLQPEDFATYYCQQSYDIPITFGPGTKVDIKR
notes: scFv
B6: Polypeptide No. 199 (scFv, V domains shown)
VH: QVQLVQSGAEVKKPGASVKVSCKASGDTFTGYHIHWVRQAPGQGLEWMGWMNPDSGSTGYAQKFQGRVTMTRDTSTSTVYMELSSLRSEDTAVYYCTTDRLYGDYFDYWGQGTLVTVSS
VL: B5 VL with I29V, T31S, G50D, S91A, Y92N, D93S, I94F, I96F
notes: scFv
B7: Polypeptide No. 184 (scFv, V domains shown)
VH: QVQLVQSGAEVKKPGASVKVSCKASGGTFGNYGINWVRQAPGQGLEWMGVINPSSGGTNLAQKFQGRVTMTRDTSTSTVYMELSSLRSEDTAVYYCARSLGWPSPYMDVWGQGTMVTVSS
VL: DIQMTQSPSSLSASVGDRVTITCRASQSISRYLNWYQQKPGKAPKLLIYDASNLETGVPSRFSGSGSGTDFTLTISSLQPEDFATYYCQQSYSTPWTFGQGTKLEIKR
notes: scFv
B8: Polypeptide No. 196 (scFv, V domains shown)
VH: QVQLVQSGAEVKKPGASVKVSCKASGYTLTNYYMHWVRQAPGQGLEWMGWISPTDGKTKYAQKFQGRVTMTRDTSTSTVYMELSSLRSEDTAVYYCTTDLLGDWFDPWGQGTLVTVSS
VL: B7 VL with Q27R, S30R, R31S, S93N, L104V
notes: scFv
B9: Polypeptide No. 185 (scFv, V domains shown)
VH: EVQLLESGGGLVQPGGSLRLSCAASGFTFSNSDMYWVRQAPGKGLEWVSAISGSDGTTYYADSVKGRFTISRDNSKNTLYLQMNSLRAEDTAVYYCARDDYGDQGFDLWGRGTLVTVSS
VL: B7 VL with S28D, S30R, R31N, Y32D, N34G, E55Q, S93N, T94M, W96Y
notes: scFv
B10: Polypeptide No. 188 (scFv, V domains shown)
VH: EVQLLESGGGLVQPGGSLRLSCAASGFTFSSYGMHWVRQAPGKGLEWVSYTSSSSSTIYYADSVKGRFTISRDNSKNTLYLQMNSLRAEDTAVYYCARGNVGDNWNDDEAFLGWGQGTLVTVSS
VL: B7 VL with R24Q, S28D, R31N, S91T, S93D, W96Y
notes: scFv
B11: Polypeptide No. 189 (scFv, V domains shown)
VH: EVQLLESGGGLVQPGGSLRLSCAASGLTAGSNYMSWVRQAPGKGLEWVSAISDDGHWTDYADSVKGRFTISRDNSKNTLYLQMNSLRAEDTAVYYCVKDDGEGSGIDWGQGTLVTVSS
VL: B5 VL with S28G, T31D, W32Y, D93S, I94T, I96W
notes: scFv
B12: Polypeptide No. 198 (scFv, V domains shown)
VH: EVQLLESGGGLVQPGGSLRLSCAASGFTFSTFWMSWVRQAPGKGLEWVATISYDGSNQYYADSVKGRFTISRDNSKNTLYLQMNSLRAEDTAVYYCARLELHEGRFDYWGQGTLVTVSS
VL: B7 VL with R31S, S91A, Y92N, T94F, W96F, Q100P, L104V, E105D
notes: scFv
B13: Polypeptide No. 186 (scFv, V domains shown)
VH: QVQLVQSGAEVKKPGASVKVSCKASGYTFTKYYMHWVRQAPGQGLEWMGWINPNSGNTGYAQKFQGRVTMTRDTSTSTVYMELSSLRSEDTAVYYCARDIAVAGSTYYYYGMDVWGQGTTVTVSS
VL: B7 VL with R24Q, S28D, R31N, S52T, W96P, Q100G, L104V
notes: scFv
B14: Polypeptide No. 195 (scFv, V domains shown)
VH: QVQLVQSGAEVKKPGASVKVSCKASGYTFTNSYIHWVRQAPGQGLEWMGIINPSGDSTTYAQKFQGRVTMTRDTSTSTVYMELSSLRSEDTAVYYCAKPTTGDGMDVWGQGTTVTVSS
VL: B7 VL with S28G, R31N, Y32W, N34A, W96L, Q100G, L104V
notes: scFv
B15: Polypeptide No. 187 (scFv, V domains shown)
VH: EVQLLESGGGLVQPGGSLRLSCAASGFTFSSYDMHWVRQAPGKGLEWVSSISSSSSYIYYADSVKGRFTISRDNSKNTLYLQMNSLRAEDTAVYYCARDIDDVAGDYWGQGTLVTVSS
VL: B7 VL with R24Q, S28D, R31N, D50G, N53S, E55Q, T56S, W96F
notes: scFv
B16: Polypeptide No. 194 (scFv, V domains shown)
VH: QVQLVQSGAEVKKPGASVKVSCKASGVTFSNSGINWVRQAPGQGLEWMGWMNPASGDTGYAQKFQGRVTMTRDTSTSTVYMELSSLRSEDTAVYYCARGEYGAEYFQHWGQGTLVTVSS
VL: B7 VL with R31S, Y32W, N34A, N53S, T56S, Y92H, T94L, W96P, K103R
notes: scFv
B17: Polypeptide No. 200 (scFv, V domains shown)
VH: QVQLVQSGAEVKKPGASVKVSCKASGYTFTDYYMHWVRQAPGQGLEWMGWMNPNSGNTGYAQKFQGRVTMTRDTSTSTVYMELSSLRSEDTAVYYCAADDTKSPYGMDVWGQGTMVTVSS
VL: B7 VL with R24Q, S28D, R31N, D50E, N53S, E55Q, T56S, S91T, T94P, W96P
notes: scFv
B18: Polypeptide No. 190 (scFv, V domains shown)
VH: EVQLLESGGGLVQPGGSLRLSCAASGFTFSSSWMHWVRQAPGKGLEWVSTINTNGDAAYYADSVKGRFTISRDNSKNTLYLQMNSLRAEDTAVYYCARDTVLDDYGDYDDYGMDVWGQGTTVTVSS
VL: EIVMTQSPATLSVSPGERATLSCRASQSVSSSYLAWYQQKPGQAPRLLIYGASTRAAGIPARFSGSGSGTEFTLTISSLQSEDFAVYYCQQYGSSPFTFGPGTKVDIKR
notes: scFv

Substitutions are numbered along the chain they refer to.

T3 sequence (P20138 18-259 R69G): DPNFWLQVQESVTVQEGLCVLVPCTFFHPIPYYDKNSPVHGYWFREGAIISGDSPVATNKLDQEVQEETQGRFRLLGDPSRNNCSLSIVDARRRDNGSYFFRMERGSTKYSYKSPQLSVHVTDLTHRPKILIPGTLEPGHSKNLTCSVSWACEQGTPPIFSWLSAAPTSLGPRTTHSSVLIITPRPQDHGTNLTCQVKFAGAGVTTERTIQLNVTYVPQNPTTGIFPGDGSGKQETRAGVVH

The first experiment addresses T3, huCD33-G69-Fc recombinant protein (human, UniProt P20138 18-259).
T3 construct: extracellular domain; also called CD33 R69G
As to the kind of experiment: BLI. In general terms: Biolayer interferometry detects binding as a change in optical thickness at a sensor tip.
For the molecule B1, the binding result was “binds”.
Same read-out and setting: in the case of B2 it was “binds”.
For B3, the binding result is on record as “binds”.
As for B4, the binding result is “binds”.

A further experiment concerns the target T1, huCLL1-K244-Avi-Tev-His. As to the kind of experiment: BLI.
B5: the binding result is reported as “binds”.
Regarding B6, the binding result is reported as “binds”.
For the molecule B7, the binding result is given as “binds”.
On the same count and under the same terms, in the case of B8 it was “no binding”; in that of B9, “binds”; in that of B10, “binds”.
B11: the binding result is “binds”.
Same read-out and setting: in the case of B12 it was “binds”; in that of B13, “binds”; in that of B14, “binds”.
Still for that read-out and setting: then B15, with “binds”; and B16, with “binds”.
As for B17, the binding result was “binds”.
On the same count and under the same terms, then B18, with “binds”.

In a further experiment the target is T2, huCLL1-Q244-Avi-Tev-His. As to the kind of experiment: BLI.
For B5, the binding result was “binds”.
Take B6: the binding result is “no binding”.
Same read-out and setting: in the case of B7 it was “binds”; in that of B8, “binds”; in that of B9, “binds”.
Regarding B10, the binding result was “binds”.
Still for that read-out and setting: then B11, with “binds”; and B12, with “no binding”; and B13, with “binds”.
The same measure, in the same setting: in the case of B14 it was “binds”.
B15: the binding result was “binds”.
With B16, the binding result is “binds”.
Consider B17, for which the binding result is “no binding”.
Take B18: the binding result is “binds”.

The target of a further experiment is T4, huCD33-R69 stably expressed on Jurkat cells (human, UniProt P20138 18-364).
T4 construct: whole, on cells; >200,000 receptors per cell; also called CD33 WT; CD33^ARG69
T4 sequence (P20138 18-364): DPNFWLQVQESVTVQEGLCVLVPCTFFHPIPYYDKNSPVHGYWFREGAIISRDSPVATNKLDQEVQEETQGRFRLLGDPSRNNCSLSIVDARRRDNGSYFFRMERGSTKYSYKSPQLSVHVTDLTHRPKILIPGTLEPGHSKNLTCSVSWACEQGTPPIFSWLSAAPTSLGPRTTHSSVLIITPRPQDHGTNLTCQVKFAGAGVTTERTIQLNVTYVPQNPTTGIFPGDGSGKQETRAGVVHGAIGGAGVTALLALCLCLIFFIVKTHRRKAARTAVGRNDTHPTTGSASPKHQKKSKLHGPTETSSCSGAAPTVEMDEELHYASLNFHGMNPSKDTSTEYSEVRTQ
Kind of experiment: FACS on cells.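 Note: fixed Jurkat lines probed with myc-tagged scFv periplasmic extracts, anti-myc PE flow cytometry, PE MFI fold binned − <2, + 2–10, ++ 10–30, +++ >30.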
Procedure: (§1) Jurkat cells were engineered to stably express either the huCD33-R69 or huCD33-G69 variant at >200,000 receptors per cell. Parental, huCD33-R69, and huCD33-G69 Jurkat cell lines were stained with differing levels of CellTrace Violet Cell Proliferation Kit (ThermoFisher, cat. #C34557) to barcode each cell line. Barcoded Jurkat cell lines were fixed with paraformaldehyde and incubated with myc-labeled scFv periplasmic extracts and a secondary anti-myc PE-conjugated monoclonal antibody. Appropriate positive and negative controls were used. Stained cells were analyzed by flow cytometry (CytoFLEX, Beckman Coulter, Inc.) and binding was assessed by change in PE mean fluorescence intensity (MFI) of the barcoded cell populations.
(§2) Data is disclosed below in Table 16c, reporting FACS fold change over parental as (−), indicating <2 fold; (+), indicating 2-10 fold; (++), indicating 10-30 fold; and (+++), indicating >30 fold.
As to B1, the “FACS geometric mean fold change over Jurkat parental” value (from here on “FACS geometric mean fold change”) fell in the range of 2 to 10 fold.
Still for that read-out and setting: in the case of B2 it was 2 to 10 fold; in that of B3, 2 to 10 fold; in that of B4, 2 to 10 fold.

The target in another experiment is T5, huCD33-G69 stably expressed on Jurkat cells (human, UniProt P20138 18-364).
T5 construct: whole, on cells; >200,000 receptors per cell; also called CD33 Mutant; CD33 R69G
T5 sequence (P20138 18-364 R69G): as the sequence (P20138 18-364) above, with R52G counted along it
Kind of experiment: FACS on cells.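 Note: fixed Jurkat lines probed with myc-tagged scFv periplasmic extracts, anti-myc PE flow cytometry, PE MFI fold binned − <2, + 2–10, ++ 10–30, +++ >30.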
Procedure: as §1, §2
For B1, the “FACS geometric mean fold change” value lay in the range of 2 to 10 fold.
Still for that read-out and setting: then B2, with 2 to 10 fold.
Regarding B3, the “FACS geometric mean fold change” value lay within 2 to 10 fold.
On the same count and under the same terms, in the case of B4 it was 10 to 30 fold.
